# According to US20250145684A1 (IMMATICS BIOTECHNOLOGIES, published 2025):
# Target: T1, HLA-B*08:01 (human)
# T1 construct: MHC monomer first loaded with a UV-sensitive peptide that is cleaved by UV light and exchanged for the test peptide
# Experiment: UV peptide exchange ELISA
# Description: Candidate peptides for T cell based therapies according to the present invention were further tested for their MHC binding capacity (affinity). The individual peptide-MHC complexes were produced by UV-ligand exchange, where a UV-sensitive peptide is cleaved upon UV-irradiation and exchanged with the peptide of interest as analyzed. Only peptide candidates that can effectively bind and stabilize the peptide-receptive MHC molecules prevent dissociation of the MHC complexes. To determine the yield of the exchange reaction, an ELISA was performed based on the detection of the light chain (β2m) of stabilized MHC complexes. The assay was performed as generally described in Rodenko et al. (Rodenko et al., 2006).
# 96 well MAXISorp plates (NUNC) were coated over night with 2 ug/ml streptavidin in PBS at room temperature, washed 4× and blocked for 1 h at 37° C. in 2% BSA containing blocking buffer. Refolded HLA-A*02:01/MLA-001 monomers served as standards, covering the range of 15-500 ng/ml. Peptide-MHC monomers of the UV-exchange reaction were diluted 100-fold in blocking buffer. Samples were incubated for 1 h at 37° C., washed four times, incubated with 2 ug/ml HRP conjugated anti-β2m for 1 h at 37° C., washed again and detected with TMB solution that is stopped with […]. Absorption was measured at 450 nm. Candidate peptides that show a high exchange yield (preferably higher than 50%, most preferred higher than 75%) are generally preferred for a generation and production of antibodies or fragments thereof, and/or T cell receptors or fragments thereof, as they show sufficient avidity to the MHC molecules and prevent dissociation of the MHC complexes.
row,Binder,peptide exchange yield [%]
1,SEPVMRVTL [SEPVMRVTL (SEQ ID NO: 239)],20 to 50
2,IPLAIARL [IPLAIARL (SEQ ID NO: 238)],50 to 75
3,DVKLVFVM [DVKLVFVM (SEQ ID NO: 233)],20 to 50
4,GPRGPSSGHPL [GPRGPSSGHPL (SEQ ID NO: 245)],20 to 50
5,NAYEAPSI [NAYEAPSI (SEQ ID NO: 241)],20 to 50
6,SPNSLVTIL [SPNSLVTIL (SEQ ID NO: 235)],50 to 75
7,DPKSRLKSL [DPKSRLKSL (SEQ ID NO: 28)],20 to 50
8,NPLIEIISI [NPLIEIISI (SEQ ID NO: 215)],20 to 50
9,HLHPKGREL [HLHPKGREL (SEQ ID NO: 25)],20 to 50
10,DVISKGVSL [DVISKGVSL (SEQ ID NO: 211)],20 to 50
11,EGVPPGTVL [EGVPPGTVL (SEQ ID NO: 243)],50 to 75
12,LAVRHLSL [LAVRHLSL (SEQ ID NO: 220)],20 to 50
13,TLRAYVLAL [TLRAYVLAL (SEQ ID NO: 228)],50 to 75
14,LPYPPQKVV [LPYPPQKVV (SEQ ID NO: 224)],20 to 50
15,DVYFHHVL [DVYFHHVL (SEQ ID NO: 230)],20 to 50
16,DLVLKRCL [DLVLKRCL (SEQ ID NO: 24)],≥ 75
17,AARAPPQAL [AARAPPQAL (SEQ ID NO: 250)],20 to 50
18,SLKEELLSL [SLKEELLSL (SEQ ID NO: 221)],50 to 75
19,FPSLFINQF [FPSLFINQF (SEQ ID NO: 213)],20 to 50
20,TPEPSVHAL [TPEPSVHAL (SEQ ID NO: 247)],20 to 50
21,RLLQKSKEL [RLLQKSKEL (SEQ ID NO: 246)],20 to 50
22,SPRVKWTF [SPRVKWTF (SEQ ID NO: 31)],20 to 50
23,HALPPYITVL [HALPPYITVL (SEQ ID NO: 244)],20 to 50
24,DIKKTNESL [DIKKTNESL (SEQ ID NO: 23)],20 to 50
25,VFRVGISF [VFRVGISF (SEQ ID NO: 234)],20 to 50
26,ELFLHPVL [ELFLHPVL (SEQ ID NO: 29)],20 to 50
27,DNHPRLVTL [DNHPRLVTL (SEQ ID NO: 218)],50 to 75

row,Binder,peptide exchange yield [%]
1,ETIKGHSVRL [ETIKGHSVRL (SEQ ID NO: 217)],20 to 50
2,RILKRFLAC [RILKRFLAC (SEQ ID NO: 21)],50 to 75
3,DVSARKLRV [DVSARKLRV (SEQ ID NO: 223)],20 to 50
4,SIQSRYISM [SIQSRYISM (SEQ ID NO: 3)],50 to 75
5,LPLDSRYVTL [LPLDSRYVTL (SEQ ID NO: 237)],50 to 75
6,DAAAFFKSV [DAAAFFKSV (SEQ ID NO: 251)],20 to 50
7,VRNPKILIL [VRNPKILIL (SEQ ID NO: 219)],20 to 50
8,DTHTNTYYL [DTHTNTYYL (SEQ ID NO: 229)],20 to 50
9,SEVNKHETAL [SEVNKHETAL (SEQ ID NO: 248)],20 to 50
10,DARCKLAEL [DARCKLAEL (SEQ ID NO: 26)],20 to 50
11,DIYEVAVSL [DIYEVAVSL (SEQ ID NO: 226)],50 to 75
12,EARPPSPAV [EARPPSPAV (SEQ ID NO: 216)],20 to 50
13,KLYIHRVTL [KLYIHRVTL (SEQ ID NO: 232)],20 to 50
14,STLKKSLEI [STLKKSLEI (SEQ ID NO: 236)],20 to 50
15,EEYKFPSL [EEYKFPSL (SEQ ID NO: 212)],20 to 50
16,GEKLLRPSL [GEKLLRPSL (SEQ ID NO: 231)],20 to 50
17,WIGLRNLDL [WIGLRNLDL (SEQ ID NO: 33)],50 to 75
18,NPYLKLVL [NPYLKLVL (SEQ ID NO: 32)],20 to 50
19,KVIDRKVEL [KVIDRKVEL (SEQ ID NO: 240)],20 to 50
20,KPQSLQLVL [KPQSLQLVL (SEQ ID NO: 242)],20 to 50
21,AQKAELIAL [AQKAELIAL (SEQ ID NO: 222)],20 to 50
22,DLQKKAQAL [DLQKKAQAL (SEQ ID NO: 30)],20 to 50
23,MPKRAHWGA [MPKRAHWGA (SEQ ID NO: 225)],50 to 75
24,EVRLKPIL [EVRLKPIL (SEQ ID NO: 22)],20 to 50
25,QQIDRVVEV [QQIDRVVEV (SEQ ID NO: 249)],20 to 50
26,SRFPGMSVL [SRFPGMSVL (SEQ ID NO: 227)],20 to 50
27,DAPRHRLL [DAPRHRLL (SEQ ID NO: 214)],20 to 50
